# Data published in patent US12630600B2 (MEDIMMUNE LIMITED, priority 2022, dated 2026).
# Starred links: 1 amine or outer side, 2 acyl side, 3 side chain; linkers in the order of their positions; H or OH if unused. Non-standard residues stand in square brackets, D forms with d. Groups on a side chain read outwards from the residue. No end group written: not given here. *: point of attachment. C20 diacid = O=C(O)CCCCCCCCCCCCCCCCCCC(=O)*; C18 diacid = O=C(O)CCCCCCCCCCCCCCCCC(=O)*; γGlu = O=C(O)[C@H](CCC(=O)[*:2])N[*:1]; αMeF = C[C@](N)(Cc1ccccc1)C(=O)O; AEEA = NCCOCCOCC(=O)O; Aib = CC(C)(N)C(=O)O
# B1: Peptide 142 (peptide)
# peptide: H[Aib]QGTFTSDVSK[αMeF]LDSK([AEEA-AEEA-γGlu-C18 diacid])RARDFVAWLLE[Aib]G-OH
# modifications: N-terminus assumed
# SMILES: CC(C)C[C@H](NC(=O)[C@H](Cc1c[nH]c2ccccc12)NC(=O)[C@H](C)NC(=O)[C@@H](NC(=O)[C@H](Cc1ccccc1)NC(=O)[C@H](CC(=O)O)NC(=O)[C@H](CCCNC(=N)N)NC(=O)[C@H](C)NC(=O)[C@H](CCCNC(=N)N)NC(=O)[C@H](CCCCNC(=O)COCCOCCNC(=O)COCCOCCNC(=O)CC[C@H](NC(=O)CCCCCCCCCCCCCCCCC(=O)O)C(=O)O)NC(=O)[C@H](CO)NC(=O)[C@H](CC(=O)O)NC(=O)[C@H](CC(C)C)NC(=O)[C@](C)(Cc1ccccc1)NC(=O)[C@H](CCCCN)NC(=O)[C@H](CO)NC(=O)[C@@H](NC(=O)[C@H](CC(=O)O)NC(=O)[C@H](CO)NC(=O)[C@@H](NC(=O)[C@H](Cc1ccccc1)NC(=O)[C@@H](NC(=O)CNC(=O)[C@H](CCC(N)=O)NC(=O)C(C)(C)NC(=O)[C@@H](N)Cc1c[nH]cn1)[C@@H](C)O)[C@@H](C)O)C(C)C)C(C)C)C(=O)N[C@@H](CC(C)C)C(=O)N[C@@H](CCC(=O)O)C(=O)NC(C)(C)C(=O)NCC(=O)O
# B2: Peptide 137 (peptide)
# peptide: H[Aib]QGTFTSDVSK[αMeF]LDSK([γGlu-γGlu-AEEA-AEEA-γGlu-γGlu-C18 diacid])RAQDFVRWLLEG[Aib]-OH
# modifications: N-terminus assumed
# SMILES: CC(C)C[C@H](NC(=O)[C@H](CC(C)C)NC(=O)[C@H](Cc1c[nH]c2ccccc12)NC(=O)[C@H](CCCNC(=N)N)NC(=O)[C@@H](NC(=O)[C@H](Cc1ccccc1)NC(=O)[C@H](CC(=O)O)NC(=O)[C@H](CCC(N)=O)NC(=O)[C@H](C)NC(=O)[C@H](CCCNC(=N)N)NC(=O)[C@H](CCCCNC(=O)CC[C@H](NC(=O)CC[C@H](NC(=O)COCCOCCNC(=O)COCCOCCNC(=O)CC[C@H](NC(=O)CC[C@H](NC(=O)CCCCCCCCCCCCCCCCC(=O)O)C(=O)O)C(=O)O)C(=O)O)C(=O)O)NC(=O)[C@H](CO)NC(=O)[C@H](CC(=O)O)NC(=O)[C@H](CC(C)C)NC(=O)[C@](C)(Cc1ccccc1)NC(=O)[C@H](CCCCN)NC(=O)[C@H](CO)NC(=O)[C@@H](NC(=O)[C@H](CC(=O)O)NC(=O)[C@H](CO)NC(=O)[C@@H](NC(=O)[C@H](Cc1ccccc1)NC(=O)[C@@H](NC(=O)CNC(=O)[C@H](CCC(N)=O)NC(=O)C(C)(C)NC(=O)[C@@H](N)Cc1c[nH]cn1)[C@@H](C)O)[C@@H](C)O)C(C)C)C(C)C)C(=O)N[C@@H](CCC(=O)O)C(=O)NCC(=O)NC(C)(C)C(=O)O
# B3: Peptide 145 (peptide)
# peptide: H[Aib]QGTFTSDVSK[αMeF]LDSK([AEEA-AEEA-γGlu-C18 diacid])RAQDFVRWLASRGI-OH
# modifications: N-terminus assumed
# SMILES: CC[C@H](C)[C@H](NC(=O)CNC(=O)[C@H](CCCNC(=N)N)NC(=O)[C@H](CO)NC(=O)[C@H](C)NC(=O)[C@H](CC(C)C)NC(=O)[C@H](Cc1c[nH]c2ccccc12)NC(=O)[C@H](CCCNC(=N)N)NC(=O)[C@@H](NC(=O)[C@H](Cc1ccccc1)NC(=O)[C@H](CC(=O)O)NC(=O)[C@H](CCC(N)=O)NC(=O)[C@H](C)NC(=O)[C@H](CCCNC(=N)N)NC(=O)[C@H](CCCCNC(=O)COCCOCCNC(=O)COCCOCCNC(=O)CC[C@H](NC(=O)CCCCCCCCCCCCCCCCC(=O)O)C(=O)O)NC(=O)[C@H](CO)NC(=O)[C@H](CC(=O)O)NC(=O)[C@H](CC(C)C)NC(=O)[C@](C)(Cc1ccccc1)NC(=O)[C@H](CCCCN)NC(=O)[C@H](CO)NC(=O)[C@@H](NC(=O)[C@H](CC(=O)O)NC(=O)[C@H](CO)NC(=O)[C@@H](NC(=O)[C@H](Cc1ccccc1)NC(=O)[C@@H](NC(=O)CNC(=O)[C@H](CCC(N)=O)NC(=O)C(C)(C)NC(=O)[C@@H](N)Cc1c[nH]cn1)[C@@H](C)O)[C@@H](C)O)C(C)C)C(C)C)C(=O)O
# B4: Peptide 144 (peptide)
# peptide: H[Aib]QGTFTSDVSK[αMeF]LDSK([γGlu-γGlu-AEEA-AEEA-γGlu-γGlu-C18 diacid])RARDFVRWLLE[Aib]G-OH
# modifications: N-terminus assumed
# SMILES: CC(C)C[C@H](NC(=O)[C@H](Cc1c[nH]c2ccccc12)NC(=O)[C@H](CCCNC(=N)N)NC(=O)[C@@H](NC(=O)[C@H](Cc1ccccc1)NC(=O)[C@H](CC(=O)O)NC(=O)[C@H](CCCNC(=N)N)NC(=O)[C@H](C)NC(=O)[C@H](CCCNC(=N)N)NC(=O)[C@H](CCCCNC(=O)CC[C@H](NC(=O)CC[C@H](NC(=O)COCCOCCNC(=O)COCCOCCNC(=O)CC[C@H](NC(=O)CC[C@H](NC(=O)CCCCCCCCCCCCCCCCC(=O)O)C(=O)O)C(=O)O)C(=O)O)C(=O)O)NC(=O)[C@H](CO)NC(=O)[C@H](CC(=O)O)NC(=O)[C@H](CC(C)C)NC(=O)[C@](C)(Cc1ccccc1)NC(=O)[C@H](CCCCN)NC(=O)[C@H](CO)NC(=O)[C@@H](NC(=O)[C@H](CC(=O)O)NC(=O)[C@H](CO)NC(=O)[C@@H](NC(=O)[C@H](Cc1ccccc1)NC(=O)[C@@H](NC(=O)CNC(=O)[C@H](CCC(N)=O)NC(=O)C(C)(C)NC(=O)[C@@H](N)Cc1c[nH]cn1)[C@@H](C)O)[C@@H](C)O)C(C)C)C(C)C)C(=O)N[C@@H](CC(C)C)C(=O)N[C@@H](CCC(=O)O)C(=O)NC(C)(C)C(=O)NCC(=O)O
# B5: Peptide 141 (peptide)
# peptide: H[Aib]QGTFTSDVSK[αMeF]LDSK([AEEA-AEEA-γGlu-C18 diacid])RAQDFVAWLLE[Aib]G-OH
# modifications: N-terminus assumed
# SMILES: CC(C)C[C@H](NC(=O)[C@H](Cc1c[nH]c2ccccc12)NC(=O)[C@H](C)NC(=O)[C@@H](NC(=O)[C@H](Cc1ccccc1)NC(=O)[C@H](CC(=O)O)NC(=O)[C@H](CCC(N)=O)NC(=O)[C@H](C)NC(=O)[C@H](CCCNC(=N)N)NC(=O)[C@H](CCCCNC(=O)COCCOCCNC(=O)COCCOCCNC(=O)CC[C@H](NC(=O)CCCCCCCCCCCCCCCCC(=O)O)C(=O)O)NC(=O)[C@H](CO)NC(=O)[C@H](CC(=O)O)NC(=O)[C@H](CC(C)C)NC(=O)[C@](C)(Cc1ccccc1)NC(=O)[C@H](CCCCN)NC(=O)[C@H](CO)NC(=O)[C@@H](NC(=O)[C@H](CC(=O)O)NC(=O)[C@H](CO)NC(=O)[C@@H](NC(=O)[C@H](Cc1ccccc1)NC(=O)[C@@H](NC(=O)CNC(=O)[C@H](CCC(N)=O)NC(=O)C(C)(C)NC(=O)[C@@H](N)Cc1c[nH]cn1)[C@@H](C)O)[C@@H](C)O)C(C)C)C(C)C)C(=O)N[C@@H](CC(C)C)C(=O)N[C@@H](CCC(=O)O)C(=O)NC(C)(C)C(=O)NCC(=O)O
# B6: Peptide 143 (peptide)
# peptide: H[Aib]QGTFTSDVSK[αMeF]LDSK([AEEA-AEEA-γGlu-C18 diacid])RARDFVQWLLE[Aib]G-OH
# modifications: N-terminus assumed
# SMILES: CC(C)C[C@H](NC(=O)[C@H](Cc1c[nH]c2ccccc12)NC(=O)[C@H](CCC(N)=O)NC(=O)[C@@H](NC(=O)[C@H](Cc1ccccc1)NC(=O)[C@H](CC(=O)O)NC(=O)[C@H](CCCNC(=N)N)NC(=O)[C@H](C)NC(=O)[C@H](CCCNC(=N)N)NC(=O)[C@H](CCCCNC(=O)COCCOCCNC(=O)COCCOCCNC(=O)CC[C@H](NC(=O)CCCCCCCCCCCCCCCCC(=O)O)C(=O)O)NC(=O)[C@H](CO)NC(=O)[C@H](CC(=O)O)NC(=O)[C@H](CC(C)C)NC(=O)[C@](C)(Cc1ccccc1)NC(=O)[C@H](CCCCN)NC(=O)[C@H](CO)NC(=O)[C@@H](NC(=O)[C@H](CC(=O)O)NC(=O)[C@H](CO)NC(=O)[C@@H](NC(=O)[C@H](Cc1ccccc1)NC(=O)[C@@H](NC(=O)CNC(=O)[C@H](CCC(N)=O)NC(=O)C(C)(C)NC(=O)[C@@H](N)Cc1c[nH]cn1)[C@@H](C)O)[C@@H](C)O)C(C)C)C(C)C)C(=O)N[C@@H](CC(C)C)C(=O)N[C@@H](CCC(=O)O)C(=O)NC(C)(C)C(=O)NCC(=O)O
# B7: Peptide 138 (peptide)
# peptide: H[Aib]QGTFTSDVSK[αMeF]LDSK([γGlu-γGlu-AEEA-AEEA-γGlu-γGlu-C18 diacid])RAQDFVRWLLE[Aib]G-OH
# modifications: N-terminus assumed
# SMILES: CC(C)C[C@H](NC(=O)[C@H](Cc1c[nH]c2ccccc12)NC(=O)[C@H](CCCNC(=N)N)NC(=O)[C@@H](NC(=O)[C@H](Cc1ccccc1)NC(=O)[C@H](CC(=O)O)NC(=O)[C@H](CCC(N)=O)NC(=O)[C@H](C)NC(=O)[C@H](CCCNC(=N)N)NC(=O)[C@H](CCCCNC(=O)CC[C@H](NC(=O)CC[C@H](NC(=O)COCCOCCNC(=O)COCCOCCNC(=O)CC[C@H](NC(=O)CC[C@H](NC(=O)CCCCCCCCCCCCCCCCC(=O)O)C(=O)O)C(=O)O)C(=O)O)C(=O)O)NC(=O)[C@H](CO)NC(=O)[C@H](CC(=O)O)NC(=O)[C@H](CC(C)C)NC(=O)[C@](C)(Cc1ccccc1)NC(=O)[C@H](CCCCN)NC(=O)[C@H](CO)NC(=O)[C@@H](NC(=O)[C@H](CC(=O)O)NC(=O)[C@H](CO)NC(=O)[C@@H](NC(=O)[C@H](Cc1ccccc1)NC(=O)[C@@H](NC(=O)CNC(=O)[C@H](CCC(N)=O)NC(=O)C(C)(C)NC(=O)[C@@H](N)Cc1c[nH]cn1)[C@@H](C)O)[C@@H](C)O)C(C)C)C(C)C)C(=O)N[C@@H](CC(C)C)C(=O)N[C@@H](CCC(=O)O)C(=O)NC(C)(C)C(=O)NCC(=O)O
# Biological target: human GLP-1 receptor (human, UniProt P43220)
# Test: cell-based or functional assay
row,cAMP production EC50 [nM],Binder
1,0.0594,B1
2,0.143,B2
3,0.0226,B3
4,0.0452,B4
5,0.264,B5
6,0.63,H[Aib]QGTFTSDVSK[αMeF]LDSK([γGlu-γGlu-AEEA-AEEA-γGlu-γGlu-C20 diacid])RAQDFVRWLLE[Aib]G-OH [Peptide 139]
7,0.0191,B6
8,0.104,B7

# Biological target: human glucagon receptor (human, UniProt P47871)
# Test: cell-based or functional assay
row,cAMP production EC50 [nM],Binder
1,0.108,B1
2,0.268,B2
3,4.59,B3
4,0.702,B4
5,0.392,B5
6,0.984,H[Aib]QGTFTSDVSK[αMeF]LDSK([γGlu-γGlu-AEEA-AEEA-γGlu-γGlu-C20 diacid])RAQDFVRWLLE[Aib]G-OH [Peptide 139]
7,0.0326,B6
8,0.184,B7
